Source: patent US20250152729A1 (CANCER RESEARCH TECHNOLOGY, published 2025)
Like-named read-outs stand apart in the source and are kept apart here.

T1: mouse SEMA4A expressed on expi293 cells (UniProt ID Q62178) (mouse, UniProt Q62178 33-760)
T1 construct: Transient transfection in expi293 cells
T1 sequence: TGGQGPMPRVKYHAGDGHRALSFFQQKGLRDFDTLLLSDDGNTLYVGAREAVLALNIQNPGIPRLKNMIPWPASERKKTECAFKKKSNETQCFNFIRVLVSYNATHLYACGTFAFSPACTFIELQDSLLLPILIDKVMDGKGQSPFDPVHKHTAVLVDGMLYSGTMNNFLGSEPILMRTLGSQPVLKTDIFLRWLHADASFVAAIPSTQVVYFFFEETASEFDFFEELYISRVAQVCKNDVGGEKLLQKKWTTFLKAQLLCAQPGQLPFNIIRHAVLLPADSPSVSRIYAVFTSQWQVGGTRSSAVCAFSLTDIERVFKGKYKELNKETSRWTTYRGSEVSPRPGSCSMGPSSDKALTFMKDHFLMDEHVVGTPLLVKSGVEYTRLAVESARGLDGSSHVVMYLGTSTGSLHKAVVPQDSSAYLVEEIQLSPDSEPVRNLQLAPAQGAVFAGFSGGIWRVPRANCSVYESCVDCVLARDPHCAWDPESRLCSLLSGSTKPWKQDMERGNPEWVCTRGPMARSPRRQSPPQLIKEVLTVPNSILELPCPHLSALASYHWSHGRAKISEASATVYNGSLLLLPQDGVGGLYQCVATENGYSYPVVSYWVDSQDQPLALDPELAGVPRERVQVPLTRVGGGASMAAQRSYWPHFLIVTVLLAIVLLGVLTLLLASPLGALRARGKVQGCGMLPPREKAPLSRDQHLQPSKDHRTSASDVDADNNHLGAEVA

T2: human SEMA4B expressed on expi293 cells (human, UniProt Q9NPR2 44-837)
T2 construct: whole, on cells
T2 sequence (looked up): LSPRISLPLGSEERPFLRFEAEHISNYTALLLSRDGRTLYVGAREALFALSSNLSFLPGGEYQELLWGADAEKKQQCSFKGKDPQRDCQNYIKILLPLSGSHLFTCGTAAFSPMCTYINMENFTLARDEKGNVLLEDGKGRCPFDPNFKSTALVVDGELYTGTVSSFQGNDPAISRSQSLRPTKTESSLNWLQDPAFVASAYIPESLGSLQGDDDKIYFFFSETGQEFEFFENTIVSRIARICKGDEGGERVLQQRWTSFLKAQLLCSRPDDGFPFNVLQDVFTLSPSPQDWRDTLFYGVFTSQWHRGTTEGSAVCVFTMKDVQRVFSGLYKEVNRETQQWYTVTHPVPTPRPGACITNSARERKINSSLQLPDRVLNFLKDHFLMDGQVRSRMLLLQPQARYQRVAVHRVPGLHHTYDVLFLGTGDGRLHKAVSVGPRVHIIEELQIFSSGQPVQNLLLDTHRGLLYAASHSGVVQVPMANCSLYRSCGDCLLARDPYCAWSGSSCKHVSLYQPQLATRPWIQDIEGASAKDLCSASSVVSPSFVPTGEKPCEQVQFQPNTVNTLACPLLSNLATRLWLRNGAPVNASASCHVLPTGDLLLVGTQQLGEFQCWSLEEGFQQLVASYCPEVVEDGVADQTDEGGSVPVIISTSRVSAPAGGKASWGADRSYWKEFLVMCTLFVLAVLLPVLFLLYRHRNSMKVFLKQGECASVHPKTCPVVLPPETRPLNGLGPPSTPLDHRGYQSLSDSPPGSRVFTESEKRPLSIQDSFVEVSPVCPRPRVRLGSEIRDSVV

T3: human SEMA4A expressed on cells (UniProt ID Q9H3S1, isoform 1) (human, UniProt Q9H3S1 33-761)
T3 sequence: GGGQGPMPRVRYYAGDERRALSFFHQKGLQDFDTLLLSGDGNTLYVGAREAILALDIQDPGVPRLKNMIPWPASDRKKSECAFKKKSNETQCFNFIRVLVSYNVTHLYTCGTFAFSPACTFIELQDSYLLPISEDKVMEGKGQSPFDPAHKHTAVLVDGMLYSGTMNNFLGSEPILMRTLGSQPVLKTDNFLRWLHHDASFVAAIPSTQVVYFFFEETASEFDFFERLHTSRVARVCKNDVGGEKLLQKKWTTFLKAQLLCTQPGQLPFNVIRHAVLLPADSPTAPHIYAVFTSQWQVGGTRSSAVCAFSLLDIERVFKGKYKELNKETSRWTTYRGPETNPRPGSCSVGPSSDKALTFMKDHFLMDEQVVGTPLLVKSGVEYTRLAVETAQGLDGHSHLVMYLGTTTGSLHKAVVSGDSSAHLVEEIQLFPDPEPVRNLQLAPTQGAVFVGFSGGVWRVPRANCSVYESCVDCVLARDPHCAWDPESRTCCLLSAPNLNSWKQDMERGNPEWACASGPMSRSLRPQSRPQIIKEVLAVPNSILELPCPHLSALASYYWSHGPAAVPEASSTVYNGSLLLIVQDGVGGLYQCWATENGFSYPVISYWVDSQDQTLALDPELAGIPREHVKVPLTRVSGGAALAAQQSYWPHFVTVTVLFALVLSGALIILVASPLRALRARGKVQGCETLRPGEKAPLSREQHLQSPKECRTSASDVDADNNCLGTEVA


Tests used:
[1] = target: T1, mouse SEMA4A expressed on expi293 cells …; assay: Mirrorball direct binding, dilution series on expi293 cells transiently transfected with mouse SEMA4A, anti-human Alexa Fluor 647
Excerpt: (§1) Hits from the primary screening were re-formatted into the human Alya IgG1 vector and re-expressed and purified as described in section 4.1. In addition, a single clone was identified that contained an Asparagine deamidation motif (Asn Gly) within its VHCDR2. This potential sequence liability was de-risked by synthesising de novo two clonal variant VH genes (Asn Ala and Gln Gly) and cloning these sequences into the human Alya IgG1 expression vector. To determine the specificity profile of each purified human Alya IgG1, a dilution series was tested for binding to human SEMA4A, mouse SEMA4A, cyno SEMA4A, human SEMA4B and mock transfected cells (transient transfections set up in expi 293 cells.) The five assays employed methods described in section 2.3, using the appropriate cells and substituting the un-purified scFv periplasmic preparation with the recombinant human Alya IgG1 dilution series. Data was analysed as Count x median mean intensity (x FLU).

[2] = target: T2, human SEMA4B expressed on expi293 cells; assay: Mirrorball direct binding, dilution series on expi293 cells transiently transfected with human SEMA4B, anti-human Alexa Fluor 647
Excerpt: as §1

[3] = target: T3, human SEMA4A expressed on cells …; assay: cell-based or functional assay
[4] = target: T2, human SEMA4B expressed on expi293 cells; assay: Mirrorball direct binding, dilution series on expi293 cells transiently transfected with human SEMA4B, anti-human Alexa Fluor 647; remark: listed apart in the source
Procedure: To determine the specificity profile of each purified human Alya IgG1 conjugated to McMMAF, a dilution series was tested for binding to human SEMA4A, human SEMA4B and mock transfected cells (transient transfections set up in expi 293 cells.) The three assays employed methods described in section 2.3, using the appropriate cells and substituting the un-purified scFv periplasmic preparation with the human Alya IgG1 conjugated to McMMAF. Data was analysed as Count x median mean intensity (x FLU).

[5] = target: T3, human SEMA4A expressed on cells …; assay: cell-based or functional assay; remark: listed apart in the source
[6] = target: T3, human SEMA4A expressed on cells …; assay: cell-based or functional assay; remark: listed apart in the source

Binder	binding result [1]	binding result [4]	Average KARPAS 25 IC50 [pM], cell kill [5] [pM]	Average MM1.S IC50 [pM], cell kill [5] [pM]	Average NCI-H929 IC50 [pM], cell kill [5] [pM]	also measured
C0120919 (antibody, V domains shown, 239iCys and S442C (EU numbering) in the constant region, purified, unconjugated; also called C0120919 human Alya IgG1 (unconjugated)) VH: not shown VL: QSALTQPPSVSVSSGQTASITCSGDKLGDKYASWYQQKPGQSPVLVIYQDTKRPSEIPERFSGSNSGNTATLTISGTQAMDEADYYCQAWDSSLVFGGGTKVTVL	binds					binding result [2]: no binding (tested: log (M) -8 (1e-8 M))
C0120913 (antibody, V domains shown, 239iCys and S442C (EU numbering) in the constant region, purified, unconjugated; also called C0120913 human Alya IgG1 (unconjugated)) VH: QVQLVQSGAEVKKPGESLKISCKGSGYSFTSYWVGWVRQMPGKGLEWMGIIYPGDSDARYGPSFQGQVTISADKSINTAYLQWNSLKASDTATYYCARLGDGAYYYYLDVWGRGTMVTVSS VL: SYELTQPPSVSESPGRTVTISCSGSSGSIASNFVHWYQQRPGSAPTTVIYEDDQRPSGVPDRFSGSIDSSSNSASLTISGLKTEDEADYYCQSYDNNDHAVFGGGTKLTVL	binds					
C0120904 human Alya IgG1 conjugated to McMMAF (antibody, V domains shown, McMMAF on the engineered cysteines 239iCys and S442C (EU numbering) of the heavy constant region, Antibody-drug conjugate; human IgG1 Alya constant) VH: not shown VL: SYELTQPPSVSVSPGQTATISCSGNKLGDGYVSWYQQKPGQSPVLVIYQDSKRPSGIPQRYSGSNSGNTATLTISGTQAIDEADYYCQAWDSSTVVFGGGTKVTVL		no binding (tested: log (M) -8 (1e-8 M))				Average MM1.S IC50 [pM], cell kill [3]: 1490 pM; Average NCI-H929 IC50 [pM], cell kill [3]: 18100 pM
C0120904 (antibody, V domains shown, 239iCys and S442C (EU numbering) in the constant region, purified, unconjugated; also called C0120904 human Alya IgG1 (unconjugated)) VH: not shown VL: SYELTQPPSVSVSPGQTATISCSGNKLGDGYVSWYQQKPGQSPVLVIYQDSKRPSGIPQRYSGSNSGNTATLTISGTQAIDEADYYCQAWDSSTVVFGGGTKVTVL	binds					binding result [2]: no binding (tested: log (M) -8 (1e-8 M))
C0120910 human Alya IgG1 conjugated to McMMAF (antibody, V domains shown, McMMAF on the engineered cysteines 239iCys and S442C (EU numbering) of the heavy constant region, Antibody-drug conjugate; human IgG1 Alya constant) VH: QVQLVESGGGVVQPGRSLRLSCEASEFTFSNYAMHWVRQAPDKGLEWVAGILYDGATAHYADSVKGRFTISRDNSKNTLYLQINSLRAEDTAVYYCARAHYYDYWSGLSFEYWGRGTLVTVSS VL: QSVLTQPPSASVSPGQTASIPCSGDDLGDKYIYWYQQKPGQSPVLVIYQDSRRPPGIPERFSGSNSGNTATLTISGTQPMDEADYYCQTWDTSSASAVFGGGTKVTVL		no binding (tested: log (M) -8 (1e-8 M))				Average MM1.S IC50 [pM], cell kill [3]: 7490 pM; Average NCI-H929 IC50 [pM], cell kill [3]: 3990 pM
C0120910 (antibody, V domains shown, 239iCys and S442C (EU numbering) in the constant region, purified, unconjugated; also called C0120910 human Alya IgG1 (unconjugated)) VH: QVQLVESGGGVVQPGRSLRLSCEASEFTFSNYAMHWVRQAPDKGLEWVAGILYDGATAHYADSVKGRFTISRDNSKNTLYLQINSLRAEDTAVYYCARAHYYDYWSGLSFEYWGRGTLVTVSS VL: QSVLTQPPSASVSPGQTASIPCSGDDLGDKYIYWYQQKPGQSPVLVIYQDSRRPPGIPERFSGSNSGNTATLTISGTQPMDEADYYCQTWDTSSASAVFGGGTKVTVL	binds					
5Hg1-5Lg2 human Alya IgG1 conjugated to McMMAF (antibody, V domains shown, McMMAF on the engineered cysteines 239iCys and S442C (EU numbering) of the heavy constant region, Antibody-drug conjugate; human IgG1 Alya constant) VH: QVQLVQSGAEVKKPGASVKVSCKASGYTFTDYWMHWVRQAPGQGLEWMGAIDTSDSYTSYNQKFKGRVTMTRDTSTSTVYMELSSLRSEDTAVYYCARDYGNFYYYAMDYWGQGTLVTVSS VL: QAVVTQEPSLTVSPGGTVTLTCRSSTGAVTTSNYANWFQQKPGQAPRTLIYGTNNRAPWTPARFSGSLLGGKAALTLLGAQPEDEAEYYCALWYSNHWVFGGGTKLTVL		no binding (tested: log (M) -8 (1e-8 M))	317	15.8	59.4	EC50 (nM), Fab-pHast internalisation into NCI-H929 [6]: 0.75 nM; Fold-Change at 6 hours (10 nM), Fab-pHast internalisation [6]: 150 fold
5Hg2-5Lg3 human Alya IgG1 conjugated to McMMAF (antibody, V domains shown, McMMAF on the engineered cysteines 239iCys and S442C (EU numbering) of the heavy constant region, Antibody-drug conjugate; human IgG1 Alya constant) VH: QVQLVQSGAEVKKPGASVKVSCKASGYTFTDYWMHWVRQAPGQRLEWMGAIDTSDSYTSYNQKFKGRVTITRDTSASTAYMELSSLRSEDTAVYYCARDYGNFYYYAMDYWGQGTLVTVSS VL: QTVVTQEPSFSVSPGGTVTLTCRSSTGAVTTSNYANWYQQTPGQAPRTLIYGTNNRAPGVPDRFSGSILGNKAALTITGAQADDESDYYCALWYSNHWVFGGGTKLTVL		no binding (tested: log (M) -8 (1e-8 M))	316	102	863	
5Hg2-5Lg1 human Alya IgG1 conjugated to McMMAF (antibody, V domains shown, McMMAF on the engineered cysteines 239iCys and S442C (EU numbering) of the heavy constant region, Antibody-drug conjugate; human IgG1 Alya constant) VH: QVQLVQSGAEVKKPGASVKVSCKASGYTFTDYWMHWVRQAPGQRLEWMGAIDTSDSYTSYNQKFKGRVTITRDTSASTAYMELSSLRSEDTAVYYCARDYGNFYYYAMDYWGQGTLVTVSS VL: QAVVTQEPSLTVSPGGTVTLTCRSSTGAVTTSNYANWFQQKPGQAPRTLIYGTNNRAPWTPARFSGSLLGGKAALTLSGAQPEDEAEYYCALWYSNHWVFGGGTKLTVL		no binding (tested: log (M) -8 (1e-8 M))	228	11.8	33.6	EC50 (nM), Fab-pHast internalisation into NCI-H929 [6]: 0.62 nM; Fold-Change at 6 hours (10 nM), Fab-pHast internalisation [6]: 144 fold
